Target: the molecule itself
Test: cryo-EM structure; single-particle reconstruction of maltoporin solubilized in DDM, C3 symmetry imposed, 3.0 Å

B1: maltoporin (natural protein, E. coli (endogenous in C43(DE3)), UniProt P02943 26-446, looked up)
chain: VDFHGYARSGIGWTGSGGEQQCFQTTGAQSKYRLGNECETYAELKLGQEVWKEGDKSFYFDTNVAYSVAQQNDWEATDPAFREANVQGKNLIEWLPGSTIWAGKRFYQRHDVHMIDFYYWDISGPGAGLENIDVGFGKLSLAATRSSEAGGSSSFASNNIYDYTNETANDVFDVRLAQMEINPGGTLELGVDYGRANLRDNYRLVDGASKDGWLFTAEHTQSVLKGFNKFVVQYATDSMTSQGKGLSQGSGVAFDNEKFAYNINNNGHMLRILDHGAISMGDNWDMMYVGMYQDINWDNDNGTKWWTVGIRPMYKWTPIMSTVMEIGYDNVESQRTGDKNNQYKITLAQQWQAGDSIWSRPAIRVFATYAKWDEKWGYDYTGNADNNANFGKAVPADFNGGSFGRGDSDEWTFGAQMEIWW
notes: maltoporin of Escherichia coli, endogenously expressed; native sample purified from E. coli; model fitted from PDB 1MAL and deposited as PDB 8B7V; source: endogenous, E. coli C43(DE3)
Question: Does B1 bind?
Answer: binds
